This is an account of results in patent US20220010021A1 (Sanofi, published 2022).

Experiment [1] addresses cell surface receptor composed of FGFR1c and co-receptor beta-Klotho (KLB) (human, UniProt P11362 22-822; Q86Z14 1-1044). The experiment in a line: cell-based or functional assay.
In a further experiment the target is T1, human beta-Klotho (KLB) (human, UniProt Q86Z14 53-997).
T1 construct: Bought soluble protein; also called human KLB; ß-Klotho
T1 sequence (looked up): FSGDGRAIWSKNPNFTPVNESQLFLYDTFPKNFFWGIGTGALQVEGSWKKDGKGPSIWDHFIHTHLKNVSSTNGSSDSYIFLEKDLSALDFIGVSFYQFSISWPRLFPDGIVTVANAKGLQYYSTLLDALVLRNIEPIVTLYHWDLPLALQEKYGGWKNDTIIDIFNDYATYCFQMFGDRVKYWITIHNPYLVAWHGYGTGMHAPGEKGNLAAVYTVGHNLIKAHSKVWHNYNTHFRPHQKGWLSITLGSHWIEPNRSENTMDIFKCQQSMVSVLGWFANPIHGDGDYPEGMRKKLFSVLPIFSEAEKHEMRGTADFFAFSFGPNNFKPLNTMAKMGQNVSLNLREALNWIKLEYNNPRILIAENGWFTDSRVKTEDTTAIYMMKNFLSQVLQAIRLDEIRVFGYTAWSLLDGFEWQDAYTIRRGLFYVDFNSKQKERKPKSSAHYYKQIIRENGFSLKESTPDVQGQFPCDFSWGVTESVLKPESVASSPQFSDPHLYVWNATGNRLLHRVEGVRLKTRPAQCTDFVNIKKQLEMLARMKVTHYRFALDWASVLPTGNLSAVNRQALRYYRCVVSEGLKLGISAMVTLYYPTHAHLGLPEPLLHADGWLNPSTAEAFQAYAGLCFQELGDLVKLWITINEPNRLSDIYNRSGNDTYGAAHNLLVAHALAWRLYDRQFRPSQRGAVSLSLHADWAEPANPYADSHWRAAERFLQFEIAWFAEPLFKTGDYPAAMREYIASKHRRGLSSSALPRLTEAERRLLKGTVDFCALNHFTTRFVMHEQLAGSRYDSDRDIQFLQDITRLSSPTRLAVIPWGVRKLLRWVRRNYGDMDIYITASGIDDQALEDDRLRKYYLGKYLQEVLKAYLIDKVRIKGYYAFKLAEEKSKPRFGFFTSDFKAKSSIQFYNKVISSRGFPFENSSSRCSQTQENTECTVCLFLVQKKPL
The experiment in a line: BLI off-rate screen, supernatant.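 Also: expression supernatants tested at 25 µg/mL, dissociation followed for 1800 s in D-PBS with 0.1% BSA.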
For Mean E max, Luciferase reporter gene assay in this document: reference of the scale not given here.

Chain of cell surface receptor composed of FGFR1c and co-receptor beta-Klotho (KLB) (P11362 22-822, chain 1 of 2): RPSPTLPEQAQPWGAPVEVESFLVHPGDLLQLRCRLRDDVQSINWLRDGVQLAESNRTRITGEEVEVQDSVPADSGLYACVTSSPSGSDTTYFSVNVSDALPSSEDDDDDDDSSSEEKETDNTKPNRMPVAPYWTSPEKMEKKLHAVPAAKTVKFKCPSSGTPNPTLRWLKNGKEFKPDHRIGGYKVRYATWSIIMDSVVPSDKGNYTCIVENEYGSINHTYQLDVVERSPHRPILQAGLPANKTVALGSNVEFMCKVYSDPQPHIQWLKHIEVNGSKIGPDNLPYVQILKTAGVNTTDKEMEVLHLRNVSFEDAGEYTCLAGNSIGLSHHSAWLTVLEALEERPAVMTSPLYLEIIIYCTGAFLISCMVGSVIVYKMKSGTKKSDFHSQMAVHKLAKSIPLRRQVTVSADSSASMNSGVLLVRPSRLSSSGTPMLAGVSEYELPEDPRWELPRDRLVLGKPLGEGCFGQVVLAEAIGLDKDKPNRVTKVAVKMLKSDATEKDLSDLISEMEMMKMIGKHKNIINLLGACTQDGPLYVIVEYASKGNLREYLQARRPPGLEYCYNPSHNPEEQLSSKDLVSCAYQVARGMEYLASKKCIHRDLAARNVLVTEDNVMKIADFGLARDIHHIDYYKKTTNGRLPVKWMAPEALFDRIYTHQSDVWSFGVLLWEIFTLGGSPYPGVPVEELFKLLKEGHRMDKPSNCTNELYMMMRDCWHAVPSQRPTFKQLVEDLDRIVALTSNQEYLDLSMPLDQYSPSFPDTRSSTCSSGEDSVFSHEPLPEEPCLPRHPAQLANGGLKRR
Chain of cell surface receptor composed of FGFR1c and co-receptor beta-Klotho (KLB) (Q86Z14 whole entry, chain 2 of 2): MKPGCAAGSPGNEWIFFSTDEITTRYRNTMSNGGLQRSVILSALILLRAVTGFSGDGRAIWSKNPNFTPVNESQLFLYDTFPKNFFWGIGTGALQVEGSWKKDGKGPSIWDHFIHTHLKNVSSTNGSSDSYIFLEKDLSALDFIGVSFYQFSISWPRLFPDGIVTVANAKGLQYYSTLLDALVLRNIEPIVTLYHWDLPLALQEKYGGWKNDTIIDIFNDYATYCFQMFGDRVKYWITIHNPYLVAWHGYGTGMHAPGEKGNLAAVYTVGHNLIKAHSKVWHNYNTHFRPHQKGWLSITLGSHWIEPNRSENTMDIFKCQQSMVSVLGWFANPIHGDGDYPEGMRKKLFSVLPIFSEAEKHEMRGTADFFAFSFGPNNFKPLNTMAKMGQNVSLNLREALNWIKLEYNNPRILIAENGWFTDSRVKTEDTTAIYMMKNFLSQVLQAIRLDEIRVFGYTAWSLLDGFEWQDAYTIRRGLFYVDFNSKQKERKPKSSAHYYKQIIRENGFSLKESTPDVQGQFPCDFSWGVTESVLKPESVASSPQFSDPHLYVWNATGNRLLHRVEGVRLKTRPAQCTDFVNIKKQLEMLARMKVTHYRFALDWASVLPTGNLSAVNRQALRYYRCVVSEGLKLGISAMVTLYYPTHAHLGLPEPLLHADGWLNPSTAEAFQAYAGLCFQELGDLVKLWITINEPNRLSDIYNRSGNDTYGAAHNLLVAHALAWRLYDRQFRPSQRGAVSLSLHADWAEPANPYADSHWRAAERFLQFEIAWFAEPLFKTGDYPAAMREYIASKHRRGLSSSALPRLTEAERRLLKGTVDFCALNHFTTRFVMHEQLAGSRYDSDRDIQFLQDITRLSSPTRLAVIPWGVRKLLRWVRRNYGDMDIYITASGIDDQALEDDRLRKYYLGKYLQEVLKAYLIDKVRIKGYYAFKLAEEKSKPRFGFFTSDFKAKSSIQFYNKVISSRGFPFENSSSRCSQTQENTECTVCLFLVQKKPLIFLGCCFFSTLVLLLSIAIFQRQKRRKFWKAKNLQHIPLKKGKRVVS

B1: 16H7 light chain variant I27H (antibody, V domains shown)
VH: not shown
VL: SYVLTQPPSVSVAPGQTARITCGGNNHGSESVHWYQQKPGQAPVLVVYDDSDRPSGIPERFSGSNSGNTATLTISRVEAGDEADYYCQVWDGNSDHVVFGGGTKLTVLG
notes: copies: 2 + 2
One may read the koff as a measure of how fast the partners let go of each other. High values mean a short-lived complex, low ones a long-lived complex. In the case of B1, in experiment [1], the “Mean E max, Luciferase reporter gene assay” value (“Mean E max” below) stood at 100% and the “Mean EC50, Luciferase reporter gene assay” value (“Mean EC50” below) came to 0.098 nM. In the experiment with human beta-Klotho (KLB), this molecule registered an off-rate constant (koff) of 3.3e-05 s⁻¹.

B2: 16H7 light chain variant S29L (antibody, V domains shown)
VH: not shown
VL: SYVLTQPPSVSVAPGQTARITCGGNNIGLESVHWYQQKPGQAPVLVVYDDSDRPSGIPERFSGSNSGNTATLTISRVEAGDEADYYCQVWDGNSDHVVFGGGTKLTVLG
notes: copies: 2 + 2
With B2, in experiment [1], the “Mean E max” value stood at 100% and the “Mean EC50” value stood at 0.108 nM. In the experiment with human beta-Klotho (KLB), this molecule gave a koff of 1.1e-05 s⁻¹.

B3: 16H7 light chain variant S29A (antibody, V domains shown)
VH: not shown
VL: SYVLTQPPSVSVAPGQTARITCGGNNIGAESVHWYQQKPGQAPVLVVYDDSDRPSGIPERFSGSNSGNTATLTISRVEAGDEADYYCQVWDGNSDHVVFGGGTKLTVLG
notes: copies: 2 + 2
Turning to B3, in experiment [1], the “Mean E max” value amounted to 100% and the “Mean EC50” value came out at 0.153 nM. Moreover, the koff in the experiment with human beta-Klotho (KLB) was found to be 1e-05 s⁻¹.

B4: 16H7 light chain variant S29F (antibody, V domains shown)
VH: not shown
VL: SYVLTQPPSVSVAPGQTARITCGGNNIGFESVHWYQQKPGQAPVLVVYDDSDRPSGIPERFSGSNSGNTATLTISRVEAGDEADYYCQVWDGNSDHVVFGGGTKLTVLG
notes: copies: 2 + 2
On to B4, for which, in experiment [1], the “Mean E max” value is 116% and the “Mean EC50” value turned out to be 0.19 nM. The same molecule had a koff with human beta-Klotho (KLB) of 1.9e-05 s⁻¹.

B5: 16H7 light chain variant I27M (antibody, human IgG4 S228P, lambda, V domains shown)
VH: not shown
VL: SYVLTQPPSVSVAPGQTARITCGGNNMGSESVHWYQQKPGQAPVLVVYDDSDRPSGIPERFSGSNSGNTATLTISRVEAGDEADYYCQVWDGNSDHVVFGGGTKLTVLG
For the molecule B5, in experiment [1], the “Mean E max” value is 97% and the “Mean EC50” value was determined as 0.087 nM. In the experiment with human beta-Klotho (KLB), this molecule had a dissociation rate constant (koff) of 6e-05 s⁻¹.

B6: 16H7 light chain variant I27Y (antibody, human IgG4 S228P, lambda, V domains shown)
VH: not shown
VL: SYVLTQPPSVSVAPGQTARITCGGNNYGSESVHWYQQKPGQAPVLVVYDDSDRPSGIPERFSGSNSGNTATLTISRVEAGDEADYYCQVWDGNSDHVVFGGGTKLTVLG
On to B6, for which, in experiment [1], the “Mean E max” value amounted to 96% and the “Mean EC50” value worked out at 0.116 nM. The molecule also gave a koff with human beta-Klotho (KLB) of 4.2e-05 s⁻¹.

B7: 16H7 light chain variant S29H (antibody, V domains shown)
VH: not shown
VL: SYVLTQPPSVSVAPGQTARITCGGNNIGHESVHWYQQKPGQAPVLVVYDDSDRPSGIPERFSGSNSGNTATLTISRVEAGDEADYYCQVWDGNSDHVVFGGGTKLTVLG
notes: copies: 2 + 2
Regarding B7, in experiment [1], the “Mean E max” value came to 100% and the “Mean EC50” value came out at 0.119 nM. In the experiment with human beta-Klotho (KLB), this molecule returned a koff of 4.9e-05 s⁻¹.

B8: 16H7 light chain variant S29K (antibody, human IgG4 S228P, lambda, V domains shown)
VH: not shown
VL: SYVLTQPPSVSVAPGQTARITCGGNNIGKESVHWYQQKPGQAPVLVVYDDSDRPSGIPERFSGSNSGNTATLTISRVEAGDEADYYCQVWDGNSDHVVFGGGTKLTVLG
Turning to B8, in experiment [1], the “Mean E max” value turned out to be 96% and the “Mean EC50” value came to 0.146 nM. Besides, the koff with human beta-Klotho (KLB) turned out to be 1.5e-05 s⁻¹.

B9: 16H7 light chain variant I27T (antibody, V domains shown)
VH: not shown
VL: SYVLTQPPSVSVAPGQTARITCGGNNTGSESVHWYQQKPGQAPVLVVYDDSDRPSGIPERFSGSNSGNTATLTISRVEAGDEADYYCQVWDGNSDHVVFGGGTKLTVLG
notes: copies: 2 + 2
In the case of B9, in experiment [1], the “Mean E max” value was 97% and the “Mean EC50” value was 0.152 nM. Further, the koff with human beta-Klotho (KLB) was found to be 3.3e-05 s⁻¹.

B10: 16H7 light chain variant S29M (antibody, human IgG4 S228P, lambda, V domains shown)
VH: not shown
VL: SYVLTQPPSVSVAPGQTARITCGGNNIGMESVHWYQQKPGQAPVLVVYDDSDRPSGIPERFSGSNSGNTATLTISRVEAGDEADYYCQVWDGNSDHVVFGGGTKLTVLG
In the case of B10, in experiment [1], the “Mean E max” value worked out at 106% and the “Mean EC50” value is 0.133 nM. In addition, the koff in the experiment with human beta-Klotho (KLB) was found to be 2.3e-05 s⁻¹.

B11: 16H7 light chain variant S29D (antibody, human IgG4 S228P, lambda, V domains shown)
VH: not shown
VL: SYVLTQPPSVSVAPGQTARITCGGNNIGDESVHWYQQKPGQAPVLVVYDDSDRPSGIPERFSGSNSGNTATLTISRVEAGDEADYYCQVWDGNSDHVVFGGGTKLTVLG
For B11, in experiment [1], the “Mean E max” value amounted to 109% and the “Mean EC50” value was 0.136 nM. The koff in the experiment with human beta-Klotho (KLB) was determined as 4.5e-05 s⁻¹.

B12: 16H7 light chain variant S29E (antibody, human IgG4 S228P, lambda, V domains shown)
VH: not shown
VL: SYVLTQPPSVSVAPGQTARITCGGNNIGEESVHWYQQKPGQAPVLVVYDDSDRPSGIPERFSGSNSGNTATLTISRVEAGDEADYYCQVWDGNSDHVVFGGGTKLTVLG
Regarding B12, in experiment [1], the “Mean E max” value turned out to be 114% and the “Mean EC50” value worked out at 0.102 nM. In the experiment with human beta-Klotho (KLB), this molecule showed a koff of 2.3e-05 s⁻¹.

B13: 16H7 light chain variant S29I (antibody, human IgG4 S228P, lambda, V domains shown)
VH: not shown
VL: SYVLTQPPSVSVAPGQTARITCGGNNIGIESVHWYQQKPGQAPVLVVYDDSDRPSGIPERFSGSNSGNTATLTISRVEAGDEADYYCQVWDGNSDHVVFGGGTKLTVLG
For the molecule B13, in experiment [1], the “Mean E max” value was determined as 107% and the “Mean EC50” value is 0.14 nM. Moreover, in the experiment with human beta-Klotho (KLB), the koff worked out at 3e-05 s⁻¹.

B14: 16H7 light chain variant I27Q (antibody, human IgG4 S228P, lambda, V domains shown)
VH: not shown
VL: SYVLTQPPSVSVAPGQTARITCGGNNQGSESVHWYQQKPGQAPVLVVYDDSDRPSGIPERFSGSNSGNTATLTISRVEAGDEADYYCQVWDGNSDHVVFGGGTKLTVLG
In the case of B14, in experiment [1], the “Mean E max” value turned out to be 103% and the “Mean EC50” value came out at 0.144 nM. Moreover, the koff with human beta-Klotho (KLB) came to 6.1e-05 s⁻¹.

B15: 16H7 light chain variant I27W (antibody, human IgG4 S228P, lambda, V domains shown)
VH: not shown
VL: SYVLTQPPSVSVAPGQTARITCGGNNWGSESVHWYQQKPGQAPVLVVYDDSDRPSGIPERFSGSNSGNTATLTISRVEAGDEADYYCQVWDGNSDHVVFGGGTKLTVLG
B15: in experiment [1], the “Mean E max” value is 104% and the “Mean EC50” value is 0.156 nM. Further, the koff with human beta-Klotho (KLB) was found to be 6.5e-05 s⁻¹.

B16: 16H7 light chain variant I27P (antibody, human IgG4 S228P, lambda, V domains shown)
VH: not shown
VL: SYVLTQPPSVSVAPGQTARITCGGNNPGSESVHWYQQKPGQAPVLVVYDDSDRPSGIPERFSGSNSGNTATLTISRVEAGDEADYYCQVWDGNSDHVVFGGGTKLTVLG
Regarding B16, in experiment [1], the “Mean E max” value worked out at 107% and the “Mean EC50” value is 0.145 nM. In the experiment with human beta-Klotho (KLB), this molecule returned a koff of 3.5e-06 s⁻¹.

B17: 16H7 light chain variant I27V (antibody, V domains shown)
VH: not shown
VL: SYVLTQPPSVSVAPGQTARITCGGNNVGSESVHWYQQKPGQAPVLVVYDDSDRPSGIPERFSGSNSGNTATLTISRVEAGDEADYYCQVWDGNSDHVVFGGGTKLTVLG
notes: copies: 2 + 2
With B17, in experiment [1], the “Mean E max” value was found to be 104% and the “Mean EC50” value was determined as 0.136 nM. Further, the koff in the experiment with human beta-Klotho (KLB) was found to be 3.3e-05 s⁻¹.

B18: 16H7 light chain variant S29C (antibody, V domains shown)
VH: not shown
VL: SYVLTQPPSVSVAPGQTARITCGGNNIGCESVHWYQQKPGQAPVLVVYDDSDRPSGIPERFSGSNSGNTATLTISRVEAGDEADYYCQVWDGNSDHVVFGGGTKLTVLG
notes: copies: 2 + 2
Regarding B18, in experiment [1], the “Mean E max” value stood at 108% and the “Mean EC50” value came out at 0.172 nM. The koff with human beta-Klotho (KLB) worked out at 5e-05 s⁻¹.

B19: 16H7 light chain variant S29G (antibody, V domains shown)
VH: not shown
VL: SYVLTQPPSVSVAPGQTARITCGGNNIGGESVHWYQQKPGQAPVLVVYDDSDRPSGIPERFSGSNSGNTATLTISRVEAGDEADYYCQVWDGNSDHVVFGGGTKLTVLG
notes: copies: 2 + 2
Take B19: in experiment [1], the “Mean E max” value was 98% and the “Mean EC50” value turned out to be 0.09 nM. The molecule further came in with a koff in the experiment with human beta-Klotho (KLB) of 3.5e-05 s⁻¹.

B20: 16H7 light chain variant I27N (antibody, V domains shown)
VH: not shown
VL: SYVLTQPPSVSVAPGQTARITCGGNNNGSESVHWYQQKPGQAPVLVVYDDSDRPSGIPERFSGSNSGNTATLTISRVEAGDEADYYCQVWDGNSDHVVFGGGTKLTVLG
notes: copies: 2 + 2
As to B20, in experiment [1], the “Mean E max” value amounted to 96% and the “Mean EC50” value stood at 0.162 nM. The molecule further displayed a koff with human beta-Klotho (KLB) of 4.5e-05 s⁻¹.

B21: 16H7 light chain variant I27R (antibody, V domains shown)
VH: not shown
VL: SYVLTQPPSVSVAPGQTARITCGGNNRGSESVHWYQQKPGQAPVLVVYDDSDRPSGIPERFSGSNSGNTATLTISRVEAGDEADYYCQVWDGNSDHVVFGGGTKLTVLG
notes: copies: 2 + 2
As to B21, in experiment [1], the “Mean E max” value stood at 105% and the “Mean EC50” value was 0.131 nM. The koff with human beta-Klotho (KLB) came to 2.2e-05 s⁻¹.
